Experimental data as given in publication PMC7264293, “Multi-site-mediated entwining of the linear WIR-motif around WIPI β-propellers for autophagy” (Nature Communications, 2020).

Molecular target: WIPI3-Δloop (human), Q5MNZ6
Assay: ITC; WIPI3 proteins in the sample cell, GB1-tagged ATG2A fragments in the syringe; 25 °C; 50 mM Tris-HCl pH 8.0, 100 mM NaCl, 1 mM EDTA, 1 mM DTT; model of one binding site

WIPI3-Δloop (human), Q5MNZ6, sequence (Q5MNZ6 other isoform, or with tags, fused parts or gaps mutant): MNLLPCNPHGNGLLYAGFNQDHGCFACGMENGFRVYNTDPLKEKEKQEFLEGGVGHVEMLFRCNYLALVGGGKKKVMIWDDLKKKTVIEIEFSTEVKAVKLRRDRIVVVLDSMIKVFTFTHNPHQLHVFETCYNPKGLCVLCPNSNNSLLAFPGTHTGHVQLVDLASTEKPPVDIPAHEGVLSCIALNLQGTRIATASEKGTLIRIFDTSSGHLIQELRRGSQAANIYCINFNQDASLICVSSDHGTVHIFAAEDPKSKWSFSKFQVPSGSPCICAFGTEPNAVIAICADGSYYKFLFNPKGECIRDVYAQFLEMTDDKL

## GPIVVRDGYFSRPIGSTD (modifications not checked) [GB1-tagged WIR-peptide ΔN-strand]
  Kd: 64.3 µM
